Non-standard residues stand in square brackets, D forms with d. No end group written: not given here. Aib = CC(C)(N)C(=O)O

In test [1] the target is T1, human glucagon receptor (hGR) (human, UniProt P47871 26-477). The test is described as follows: cell-based or functional assay.
Test [2] has as its target T1, human glucagon receptor (hGR). Put plainly: SPA competition against 125I-labelled glucagon on hGR membranes; Cheng-Prusoff. As for the experimental part:
Plates are sealed, mixed end over end, and read with a MicroBeta® scintillation counter after 12 hours of settling time at room temperature.

Test [3] concerns the target T2, mouse glucagon receptor (mGR) (mouse, UniProt Q61606 27-485).
T2 construct: whole, on cells; The assay used crude plasma membranes of the expressing 293HEK cells
Put plainly: SPA competition against 125I-labelled glucagon on mGR membranes; Cheng-Prusoff.

Test [4] concerns the target T3, human glucose-dependent insulinotropic peptide receptor (GIP-R) (human, UniProt P48546 22-466).
T3 construct: whole, on cells; The assay used crude plasma membranes of the expressing CHO-S cells; also called human GIP-R; hGIP-R
T3 sequence (looked up): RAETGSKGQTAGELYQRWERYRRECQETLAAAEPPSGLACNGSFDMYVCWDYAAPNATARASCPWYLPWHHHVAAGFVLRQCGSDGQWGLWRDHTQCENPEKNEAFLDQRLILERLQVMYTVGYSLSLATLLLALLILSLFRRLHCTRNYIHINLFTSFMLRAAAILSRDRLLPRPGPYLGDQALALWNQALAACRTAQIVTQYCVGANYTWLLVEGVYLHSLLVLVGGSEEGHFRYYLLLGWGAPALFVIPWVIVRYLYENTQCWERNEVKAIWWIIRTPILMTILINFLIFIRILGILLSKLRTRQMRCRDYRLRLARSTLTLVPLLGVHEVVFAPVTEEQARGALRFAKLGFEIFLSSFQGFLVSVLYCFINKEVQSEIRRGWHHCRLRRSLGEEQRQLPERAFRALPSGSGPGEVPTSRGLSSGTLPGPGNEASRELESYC
Put plainly: SPA competition against 125I-labelled GIP on human GIP-R membranes; Cheng-Prusoff.

In test [5] the target is T4, human glucagon-like peptide 1 receptor (hGLP-1R) (human, UniProt P43220 24-463).
T4 construct: whole, on cells; The assay used crude plasma membranes of the expressing 293HEK cells
The test is described as follows: SPA competition against 125I-labelled GLP-1 amide on hGLP-1R membranes; Cheng-Prusoff.

T1 sequence (P47871 26-477): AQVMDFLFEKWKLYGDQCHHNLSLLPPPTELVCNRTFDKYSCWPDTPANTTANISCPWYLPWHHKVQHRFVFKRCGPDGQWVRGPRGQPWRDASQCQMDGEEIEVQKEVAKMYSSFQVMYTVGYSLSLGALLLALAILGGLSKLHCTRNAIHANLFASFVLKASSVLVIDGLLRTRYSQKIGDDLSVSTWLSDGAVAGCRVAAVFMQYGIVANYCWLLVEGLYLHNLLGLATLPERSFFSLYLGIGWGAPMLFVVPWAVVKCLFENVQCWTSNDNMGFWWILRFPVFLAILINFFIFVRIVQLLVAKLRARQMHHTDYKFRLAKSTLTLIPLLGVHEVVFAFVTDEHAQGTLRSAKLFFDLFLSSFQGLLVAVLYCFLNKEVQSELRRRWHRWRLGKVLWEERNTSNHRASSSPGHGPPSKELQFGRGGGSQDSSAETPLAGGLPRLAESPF
T2 sequence (Q61606 27-485): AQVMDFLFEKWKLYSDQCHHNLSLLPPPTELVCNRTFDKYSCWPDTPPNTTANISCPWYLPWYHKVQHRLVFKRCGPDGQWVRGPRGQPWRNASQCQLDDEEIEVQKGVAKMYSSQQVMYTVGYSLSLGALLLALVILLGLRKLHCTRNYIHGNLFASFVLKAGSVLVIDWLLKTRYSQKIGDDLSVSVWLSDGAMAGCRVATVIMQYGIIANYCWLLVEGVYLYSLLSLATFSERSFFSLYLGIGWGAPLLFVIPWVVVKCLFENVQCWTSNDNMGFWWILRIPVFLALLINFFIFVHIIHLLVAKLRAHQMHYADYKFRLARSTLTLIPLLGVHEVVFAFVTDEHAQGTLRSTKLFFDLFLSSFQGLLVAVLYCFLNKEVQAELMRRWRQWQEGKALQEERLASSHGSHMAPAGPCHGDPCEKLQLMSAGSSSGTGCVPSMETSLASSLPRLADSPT

B1: compound of SEQ ID NO: 2 (peptide)
peptide: HAQGTFLSDYSKYLD[Aib]KKAQEFVEWLLKTGPSSGAPPKSK-NH2
modifications: N-terminus assumed
SMILES: CC(C)C[C@H](NC(=O)[C@H](Cc1c[nH]c2ccccc12)NC(=O)[C@H](CCC(=O)O)NC(=O)[C@@H](NC(=O)[C@H](Cc1ccccc1)NC(=O)[C@H](CCC(=O)O)NC(=O)[C@H](CCC(N)=O)NC(=O)[C@H](C)NC(=O)[C@H](CCCCN)NC(=O)[C@H](CCCCN)NC(=O)C(C)(C)NC(=O)[C@H](CC(=O)O)NC(=O)[C@H](CC(C)C)NC(=O)[C@H](Cc1ccc(O)cc1)NC(=O)[C@H](CCCCN)NC(=O)[C@H](CO)NC(=O)[C@H](Cc1ccc(O)cc1)NC(=O)[C@H](CC(=O)O)NC(=O)[C@H](CO)NC(=O)[C@H](CC(C)C)NC(=O)[C@H](Cc1ccccc1)NC(=O)[C@@H](NC(=O)CNC(=O)[C@H](CCC(N)=O)NC(=O)[C@H](C)NC(=O)[C@@H](N)Cc1c[nH]cn1)[C@@H](C)O)C(C)C)C(=O)N[C@@H](CC(C)C)C(=O)N[C@@H](CCCCN)C(=O)N[C@H](C(=O)NCC(=O)N1CCC[C@H]1C(=O)N[C@@H](CO)C(=O)N[C@@H](CO)C(=O)NCC(=O)N[C@@H](C)C(=O)N1CCC[C@H]1C(=O)N1CCC[C@H]1C(=O)N[C@@H](CCCCN)C(=O)N[C@@H](CO)C(=O)N[C@@H](CCCCN)C(N)=O)[C@@H](C)O
notes: Synthetic 40-residue glucagon analog made by solid-phase synthesis on Rink amide resin
As to B1, the “hGR stimulated cAMP functional assay (HTRF), relative EC50” value in test [1] was found to be 0.0356 nM. The Ki in test [2] turned out to be 0.397 nM; in test [3], 0.494 nM; in test [4] it was 1050 nM; in test [5] it was 1220 nM.

For the origin of these results see patent US20160311881A1 (Eli Lilly, published 2016).
